The supplement of paper PMC10724198
± gives the standard deviation of the averaged measurements.

Tested on: Saccharomyces cerevisiae
Assay: protein stability index of tFT-peptide fusion (C-terminal peptide) (PSI (0-1 scale)); higher = more stable (slower turnover)
Conditions: temperature: 30 C
Description: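 MPS profiling in S. cerevisiae of the yeast C-terminome library: the last 12 aa of each annotated ORF are fused to the C-terminus of a sfGFP-mCherry timer, after a GGGS linker. Cells are FACS-sorted into 8 mCherry/sfGFP bins and deep-sequenced. PSI runs from 0 (unstable) to 1 (stable); wild type and das1Δ backgrounds, two technical replicates each.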

[1] = genetic background: das1 deletion

| Sequence | protein stability index [1] | protein stability index (genetic background: wild type) |
| --- | --- | --- |
| SVLKRVRKLFGE [VMA7 C-terminal 12 aa] | 0.712 ± 0.004 | 0.684 ± 0.02 |
| SWETKLKQNILE [CSN9 C-terminal 12 aa] | 0.7156 ± 0.0054 | 0.6441 ± 0.0042 |
| SWISNNTNVPKK [ARF3 C-terminal 12 aa] | 0.6958 ± 0.0013 | 0.678 ± 0.011 |
| SYFNTIMHNCKP [SET4 C-terminal 12 aa] | 0.72482 ± 0.00043 | 0.715 ± 0.0071 |
| TAFLNKVYKRSK [ERG20 C-terminal 12 aa] | 0.692 ± 0.007 | 0.693 ± 0.043 |
| TANKVELMANIV [MAK31 C-terminal 12 aa] | 0.6683 ± 0.0035 | 0.686 ± 0.041 |
| TASFAGSKKTFD [NSR1 C-terminal 12 aa] | 0.706 ± 0.023 | 0.678 ± 0.012 |
| TDDKEKLLKTLK [ACC1 C-terminal 12 aa] | 0.698 ± 0.016 | 0.734 ± 0.023 |
| TDFENPNFRYTL [DAL5 C-terminal 12 aa] | 0.756 ± 0.039 | 0.794 ± 0.12 |
| TDLPKWAQLDNS [PUS6 C-terminal 12 aa] | 0.729 ± 0.028 | 0.702 ± 0.026 |
| TFCVYENLKHRL [FLX1 C-terminal 12 aa] | 0.741 ± 0.019 | 0.726 ± 0.017 |
| TGGCSSSKFSLS [SKN1 C-terminal 12 aa] | 0.692 ± 0.021 | 0.68965 ± 0.00013 |
| THFFSIEWAGFG [SEN34 C-terminal 12 aa] | 0.7116 ± 0.0045 | 0.725 ± 0.041 |
| TIAAGKISEITQ [HBS1 C-terminal 12 aa] | 0.7292 ± 0.0066 | 0.697 ± 0.01 |
| TIEEVKIPGLDI [MRPL50 C-terminal 12 aa] | 0.701 ± 0.0088 | 0.711 ± 0.0074 |
| TISNWIQETKEV [STO1 C-terminal 12 aa] | 0.70591 ± 0.00011 | 0.7293 ± 0.0034 |
| TKARTLGEGSVN [YDR476C C-terminal 12 aa] | 0.686 ± 0.032 | 0.674 ± 0.021 |
| TKGEVATKPASY [MGA1 C-terminal 12 aa] | 0.702 ± 0.014 | 0.703 ± 0.018 |
| TKHTPKYLLNTI [YNL179C C-terminal 12 aa] | 0.6926 ± 0.0048 | 0.6621 ± 0.00097 |
| TKRLRKNKCIIM [RHO4 C-terminal 12 aa] | 0.743 ± 0.0024 | 0.702 ± 0.024 |
| TKYKTVTVTAKT [YMR244W C-terminal 12 aa] | 0.652 ± 0.014 | 0.71 ± 0.034 |

| Sequence | protein stability index [1] | protein stability index (genetic background: wild type) |
| --- | --- | --- |
| TNGITTERHKKK [NTG2 C-terminal 12 aa] | 0.714 ± 0.0084 | 0.668 ± 0.028 |
| TNTVPATSASSK [RGC1 C-terminal 12 aa] | 0.68862 ± 0.00043 | 0.701 ± 0.04 |
| TNWGQHKTVQNT [PPE1 C-terminal 12 aa] | 0.698 ± 0.024 | 0.713 ± 0.019 |
| TNYEVTDTYTNS [SOM1 C-terminal 12 aa] | 0.7107 ± 0.0011 | 0.712 ± 0.017 |
| TPRLYTDRSRDF [RPB2 C-terminal 12 aa] | 0.743 ± 0.0033 | 0.713 ± 0.013 |
| TPSEDDDGAVEI [LSM3 C-terminal 12 aa] | 0.688 ± 0.0068 | 0.749 ± 0.062 |
| TPTDSTPTKKDI [LAC1 C-terminal 12 aa] | 0.6941 ± 0.0027 | 0.725 ± 0.019 |
| TRKKGGRRGRRL [RPS14A C-terminal 12 aa] | 0.711 ± 0.011 | 0.676 ± 0.011 |
| TRMSSPPPSTSS [SET2 C-terminal 12 aa] | 0.695 ± 0.023 | 0.6896 ± 0.0047 |
| TSDQKNKRTQFS [RPB9 C-terminal 12 aa] | 0.6969 ± 0.0066 | 0.667 ± 0.07 |
| TVFETLTLHSAN [JSN1 C-terminal 12 aa] | 0.725 ± 0.024 | 0.68218 ± 0.00033 |
| TVGYGILKVMGF [PHO91 C-terminal 12 aa] | 0.659 ± 0.012 | 0.656 ± 0.009 |
| TVSLPSRYSRYN [ALR2 C-terminal 12 aa] | 0.6976 ± 0.0014 | 0.684 ± 0.033 |
| VAKKRLSSRSKP [YNL162W-A C-terminal 12 aa] | 0.715 ± 0.05 | 0.658 ± 0.02 |
| VARYKMVSKRIW [EMP65 C-terminal 12 aa] | 0.717 ± 0.011 | 0.654 ± 0.018 |
| VDIPVDVKKLQI [BUL2 C-terminal 12 aa] | 0.723 ± 0.035 | 0.696 ± 0.018 |
| VDMKWGSFPIFQ [YPR1 C-terminal 12 aa] | 0.7256 ± 0.0028 | 0.7 ± 0.027 |
| VDSEGQIRYAKE [YCR087C-A C-terminal 12 aa] | 0.673 ± 0.028 | 0.6705 ± 0.0015 |
| VEIPTVESTKSG [RNA14 C-terminal 12 aa] | 0.696 ± 0.021 | 0.7544 ± 0.0014 |
| VEPVYLCASLSL [YCR047W-A C-terminal 12 aa] | 0.666 ± 0.027 | 0.6733 ± 0.00078 |
